The supplement of paper PMC11246515
± gives the standard deviation of the averaged measurements.

Assay: total protein half-life in vivo (active degradation + dilution); higher = more stable protein
[1] = E. coli NCM3722 delta-clpP delta-lon delta-hslV, growth: N-lim chemostat, doubling time 6 h
[2] = wild type E. coli NCM3722, growth: C-lim chemostat, doubling time 3 h
[3] = wild type E. coli NCM3722, growth: C-lim chemostat, doubling time 6 h
[4] = wild type E. coli NCM3722, growth: C-lim chemostat, doubling time 12 h
[5] = wild type E. coli NCM3722, growth: P-lim chemostat, doubling time 12 h
[6] = E. coli NCM3722 delta-clpP, growth: N-lim chemostat, doubling time 6 h
[7] = E. coli NCM3722 delta-hslV, growth: N-lim chemostat, doubling time 6 h
[8] = E. coli NCM3722 delta-lon, growth: N-lim chemostat, doubling time 6 h
[9] = E. coli NCM3722 delta-smpB, growth: N-lim chemostat, doubling time 6 h
[10] = wild type E. coli NCM3722, growth: N-lim chemostat, doubling time 6 h
[11] = wild type E. coli NCM3722, growth: N-lim chemostat, doubling time 12 h
[12] = wild type E. coli NCM3722, growth: P-lim chemostat, doubling time 6 h

| Sequence | total protein half-life in vivo [1] [h] | total protein half-life in vivo [2] [h] | total protein half-life in vivo [3] [h] | total protein half-life in vivo [4] [h] | total protein half-life in vivo [5] [h] | total protein half-life in vivo [6] [h] | total protein half-life in vivo [7] [h] | total protein half-life in vivo [8] [h] | total protein half-life in vivo [9] [h] | total protein half-life in vivo [10] [h] | total protein half-life in vivo [11] [h] | total protein half-life in vivo [12] [h] |
| --- | --- | --- | --- | --- | --- | --- | --- | --- | --- | --- | --- | --- |
| MITNTKLDPIETASVDELQALQTQRLKWTLKHAYENVPMYRRKFDAAGVHPDDFRELSDLRKFPCTTKQDLRDNYPFDTFAVPMEQVVRIHASSGTTGKPTVVGYTQNDIDNWANIVARSLRAAGGSPKDKIHVAYGYGLFTGGLGAHYGAERLGATVIPMSGGQTEKQAQLIRDFQPDMIMVTPSYCLNLIEELERQLGGDASGCSLRVGVFGAEPWTQAMRKEIERRLGITALDIYGLSEVMGPGVAMECLETTDGPTIWEDHFYPEIVNPHDGTPLADGEHGELLFTTLTKEALPVIRYRTRDLTRLLPGTARTMRRMDRISGRSDDMLIIRGVNVFPSQLEEEIVKFEHLSPHYQLEVNRRGHLDSLSVKVELKESSLTLTHEQRCQVCHQLRHRIKSMVGISTDVMIVNCGSIPRSEGKACRVFDLRNIVGA | 4.99 ± 0.39 | 0.692 ± 0.075 | 0.955 ± 0.08 | 1.21 ± 0.14 | 0.624 |  |  |  |  |  |  |  |
| MIVAFCLYKYFPFGGLQRDFMRIASTVAARGHHVRVYTQSWEGDCPKAFELIQVPVKSHTNHGRNAEYYAWVQNHLKEHPADRVVGFNKMPGLDVYFAADVCYAEKVAQEKGFLYRLTSRYRHYAAFERATFEQGKSTKLMMLTDKQIADFQKHYQTEPERFQILPPGIYPDRKYSEQIPNSREIYRQKNGIKEQQNLLLQVGSDFGRKGVDRSIEALASLPESLRHNTLLFVVGQDKPRKFEALAEKLGVRSNVHFFSGRNDVSELMAAADLLLHPAYQEAAGIVLLEAITAGLPVLTTAVCGYAHYIADANCGTVIAEPFSQEQLNEVLRKALTQSPLRMAWAENARHYADTQDLYSLPEKAADIITGGLDG | 6.84 ± 0.81 | 3.115 ± 0.015 | 6.72 ± 0.35 | 11.8 ± 2.6 | 12.2 ± 0.98 | 7.01 ± 1.2 | 6.71 ± 0.8 | 5.95 ± 0.33 | 5.9 ± 0.47 | 6.2 ± 0.56 | 12.3 ± 1.8 | 6.25 ± 0.29 |
| MIVFSSLQIRRGVRVLLDNATATINPGQKVGLVGKNGCGKSTLLALLKNEISADGGSYTFPGSWQLAWVNQETPALPQAALEYVIDGDREYRQLEAQLHDANERNDGHAIATIHGKLDAIDAWSIRSRAASLLHGLGFSNEQLERPVSDFSGGWRMRLNLAQALICRSDLLLLDEPTNHLDLDAVIWLEKWLKSYQGTLILISHDRDFLDPIVDKIIHIEQQSMFEYTGNYSSFEVQRATRLAQQQAMYESQQERVAHLQSYIDRFRAKATKAKQAQSRIKMLERMELIAPAHVDNPFRFSFRAPESLPNPLLKMEKVSAGYGDRIILDSIKLNLVPGSRIGLLGRNGAGKSTLIKLLAGELAPVSGEIGLAKGIKLGYFAQHQLEYLRADESPIQHLARLAPQELEQKLRDYLGGFGFQGDKVTEETRRFSGGEKARLVLALIVWQRPNLLLLDEPTNHLDLDMRQALTEALIEFEGALVVVSHDRHLLRSTTDDLYLVHDRKVEPFDGDLEDYQQWLSDVQKQENQTDEAPKENANSAQARKDQKRREAELRAQTQPLRKEIARLEKEMEKLNAQLAQAEEKLGDSELYDQSRKAELTACLQQQASAKSGLEECEMAWLEAQEQLEQMLLEGQSN | 6.02 ± 0.54 | 2.39 ± 0.12 | 4.3 ± 0.48 | 6.5 ± 0.051 | 6.36 ± 0.25 | 4.89 ± 0.15 | 2.697 ± 0.016 | 3.16 ± 0.084 | 2.95 ± 0.13 | 2.95 ± 0.15 | 3.94 ± 0.5 | 3.58 ± 0.25 |
| MIVLVTGATAGFGECITRRFIQQGHKVIATGRRQERLQELKDELGDNLYIAQLDVRNRAAIEEMLASLPAEWCNIDILVNNAGLALGMEPAHKASVEDWETMIDTNNKGLVYMTRAVLPGMVERNHGHIINIGSTAGSWPYAGGNVYGATKAFVRQFSLNLRTDLHGTAVRVTDIEPGLVGGTEFSNVRFKGDDGKAEKTYQNTVALTPEDVSEAVWWVSTLPAHVNINTLEMMPVTQSYAGLNVHRQ | 5.86 ± 0.16 |  |  | 10.8 ± 0.87 | 11.6 ± 1.9 |  | 6.26 ± 1.3 | 6.57 ± 1.4 | 4.72 ± 0.53 | 4.82 ± 0.56 | 8.94 ± 0.42 | 6.44 ± 0.14 |
| MIVTIVGWLVLFVFLPNLMIIGTSFLTRDDASFVKMVFTLDNYTRLLDPLYFEVLLHSLNMALIATLACLVLGYPFAWFLAKLPHKVRPLLLFLLIVPFWTNSLIRIYGLKIFLSTKGYLNEFLLWLGVIDTPIRIMFTPSAVIIGLVYILLPFMVMPLYSSIEKLDKPLLEAARDLGASKLQTFIRIIIPLTMPGIIAGCLLVMLPAMGLFYVSDLMGGAKNLLIGNVIKVQFLNIRDWPFGAATSITLTIVMGLMLLVYWRASRLLNKKVELE [P0AFK4] | 4.04 ± 3 |  | 5.93 | 9.29 ± 5.5 | 6.6 |  |  |  | 5.57 ± 0.42 | 5.03 |  | 2.09 |
| MIYIGLPQWSHPKWVRLGITSLEEYARHFNCVEGNTTLYALPKPEVVLRWREQTTDDFRFCFKFPATISHQAALRHCDDLVTEFLTRMSPLAPRIGQYWLQLPATFGPRELPALWHFLDSLPGEFNYGVEVRHPQFFAKGEEEQTLNRGLHQRGVNRVILDSRPVHAARPHSEAIRDAQRKKPKVPVHAVLTATNPLIRFIGSDDMTQNRELFQVWLQKLAQWHQTTTPYLFLHTPDIAQAPELVHTLWEDLRKTLPEIGAVPAIPQQSSLF | 4.97 ± 2.1 |  | 4.28 | 8.14 ± 0.79 | 11.5 ± 0.46 | 3.55 ± 0.26 | 2.76 ± 0.11 | 3.25 ± 0.55 | 2.97 ± 0.13 | 3.16 ± 0.033 | 5.52 | 5.33 ± 0.11 |
